# Reference: patent US6509443
# T1: IGF-I F49A on phage (G1S-A70V background, gene III fusion) (human; bacteriophage M13)
# T1 chain: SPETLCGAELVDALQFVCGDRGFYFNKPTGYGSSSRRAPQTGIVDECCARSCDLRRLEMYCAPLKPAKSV
# T2: IGF-I T4A on phage (G1S-A70V background, gene III fusion) (human; bacteriophage M13)
# T2 construct: monovalent on M13 phage; not shown: M13 gene III fragment (residues 249-406) and the junction after residue 70
# T2 chain: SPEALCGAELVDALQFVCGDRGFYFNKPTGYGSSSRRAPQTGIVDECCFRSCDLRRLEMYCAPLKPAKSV
# T3: IGF-I L5A on phage (G1S-A70V background, gene III fusion) (human; bacteriophage M13)
# T3 construct: monovalent on M13 phage; not shown: M13 gene III fragment (residues 249-406) and the junction after residue 70
# T3 chain: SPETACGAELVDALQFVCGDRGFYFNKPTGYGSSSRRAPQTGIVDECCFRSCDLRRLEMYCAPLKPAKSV
# B1: human IGFBP-1 (other, UniProt P08833 26-259, looked up)
# chain: APWQCAPCSAEKLALCPPVSASCSEVTRSAGCGCCPMCALPLGAACGVATARCARGLSCRALPGEQQPLHALTRGQGACVQESDASAPHAAEAGSPESPESTEITEEELLDNFHLMAPSEEDHSILWDAISTYDGSKALHVTNIKKWKEPCRIELYRVVESLAKAQETSGEEISKFYLPNCNKNGFYHSRQCETSMDGEAGLCWCVYPWNGKRIPGSPEIRGDPNCQIYFNVQN
# notes: mature
# B2: IGF-I E3A on phage (G1S-A70V background, gene III fusion) (ligand)
# chain: SPATLCGAELVDALQFVCGDRGFYFNKPTGYGSSSRRAPQTGIVDECCFRSCDLRRLEMYCAPLKPAKSV
# notes: monovalent on M13 phage; not shown: M13 gene III fragment (residues 249-406) and the junction after residue 70
# Assays:
# [1] = biological target: T1, IGF-I F49A on phage (G1S-A70V …); experiment: phage ELISA on coated IGFBP-3, soluble IGFBP-1 as competitor (FIG. 3A); conditions: remark: other sources report otherwise
# [2] = biological target: B2; experiment: competitive phage ELISA, soluble vs coated IGFBP-1
# Method: (§1) Phage particles were harvested and resuspended in PBS buffer as described in Lowman, H. B., "Phage Display of Peptide Libraries on Protein Scaffolds," in Cabilly, S. (ed.), *Combinatorial Peptide Library Protocols* (Humana Press Inc.: Totowa, N.J., 1998), pp. 249–264. Then phage concentrations were normalized to yield a maximal ELISA signal of 0.2–0.4 for each mutant (Lowman, in Cabilly, S. (ed.), supra). Threefold serial dilutions of soluble competitor were prepared on non-absorbent microtiter plates (Nunc, F, 96 wells) with binding buffer (0.5% TWEEN™ 20/PBS) containing phage at the previously-determined concentrations. […] After blocking, the plates containing immobilized target were washed with 0.05% TWEEN™/PBS buffer and subsequently incubated with 80 μl/well of the premixed phage-competitor solutions for 1 hour at room temperature. […] Numbers in Table I represent mean±standard deviation of individually assessed $IC50$ values.
# (§2) At least two different clones of every mutant were tested.
# [3] = biological target: T2, IGF-I T4A on phage (G1S-A70V …); experiment: competitive phage ELISA, soluble vs coated IGFBP-1
# Method: as §1, §2
# [4] = biological target: T4, IGF-I S1G on phage (single mutant of G1S-A70V, gene III fusion) (human; bacteriophage M13, UniProt P05019 49-117); experiment: competitive phage ELISA, soluble vs coated IGFBP-1
# T4 construct: monovalent on M13 phage; not shown: M13 gene III fragment (residues 249-406) and the junction after residue 70
# Method: as §1, §2
# [5] = biological target: T3, IGF-I L5A on phage (G1S-A70V …); experiment: competitive phage ELISA, soluble vs coated IGFBP-1
# Method: as §1, §2
# [6] = biological target: T5, IGF-I S69A on phage (G1S-A70V background, gene III fusion) (human; bacteriophage M13); experiment: competitive phage ELISA, soluble vs coated IGFBP-1
# T5 construct: monovalent on M13 phage; not shown: M13 gene III fragment (residues 249-406) and the junction after residue 70
# Method: as §1, §2
# [7] = biological target: T6, IGF-I V70A on phage (single mutant of G1S-A70V, gene III fusion) (human; bacteriophage M13); experiment: competitive phage ELISA, soluble vs coated IGFBP-1
# T6 construct: monovalent on M13 phage; not shown: M13 gene III fragment (residues 249-406) and the junction after residue 70
# Method: as §1, §2
# [8] = biological target: T7, recombinant human IGFBP-3 (human, UniProt P17936 28-291); experiment: competitive phage ELISA
# T7 construct: mature
# Method: as §1, §2
# human IGFBP-1 = biological target: B1; experiment: competitive phage ELISA
# Method: as §1, §2
# T7 sequence (P17936 28-291): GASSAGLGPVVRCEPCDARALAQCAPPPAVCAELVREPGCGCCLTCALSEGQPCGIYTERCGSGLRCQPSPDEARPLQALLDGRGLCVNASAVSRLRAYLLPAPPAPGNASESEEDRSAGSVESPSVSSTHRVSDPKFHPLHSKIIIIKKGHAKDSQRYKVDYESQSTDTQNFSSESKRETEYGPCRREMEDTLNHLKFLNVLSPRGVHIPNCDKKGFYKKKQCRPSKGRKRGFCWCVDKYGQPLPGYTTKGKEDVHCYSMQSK
Binder,shift of the binding curve against G1S-A70V phage [1] [fold],IC50 [2] [µM],IC50 [3] [µM],IC50 [4] [µM],IC50 [5] [µM],IC50 [6] [µM],IC50 [7] [µM],binding result [8],binding result (human IGFBP-1)
B1,> 100,0.278,0.0194,0.0112,0.0553,0.0128,0.0191,–,–
B2,–,–,–,–,–,–,–,binds,binds
